The values that follow come from patent US20090226428A1 (CEPHALON AUSTRALIA, published 2009).

For assay [1], the target named is T1, human TNF-α (human, UniProt P01375 77-233). Briefly: cell-based or functional assay.
Assay [2] addresses T1, human TNF-α. Briefly: receptor binding assay (ELISA): dAb mixed with TNF (10 ng/ml), binding of TNF to captured TNF receptor 1 Fc fusion protein detected; blocked partner TNF receptor 1-Fc. The method, then:
dAbs diversified in the 14 selected positions were tested for the ability to inhibit the binding of TNF to recombinant TNF receptor 1 (p55). Briefly, Maxisorp plates were incubated overnight with […] anti-human Fc mouse monoclonal antibody (Zymed, San Francisco, USA). The wells were washed with phosphate buffered saline (PBS) containing 0.05% Tween-20 and then blocked with 1% BSA in PBS before being incubated with 100 ng/ml TNF receptor 1 Fc fusion protein (R&D Systems, Minneapolis, USA). Each dAb was mixed with TNF which was added to the washed wells at a final concentration of 10 ng/ml. TNF binding was detected with 0.2 mg/ml biotinylated anti-TNF antibody (HyCult biotechnology, Uben, Netherlands) followed by 1 in 500 dilution of horse radish peroxidase labelled streptavidin (Amersham Biosciences, UK) and then incubation with TMB substrate (KPL, Gaithersburg, USA). The reaction was stopped by the addition of HCl and the absorbance was read at 450 nm. Anti-TNF dAb activity lead to a decrease in TNF binding and therefore a decrease in absorbance compared with the TNF only control (FIG. 5).
For orientation: An ELISA detects its analyte on a solid surface through an enzyme-linked reagent.

T1 sequence (P01375 77-233 limits assumed): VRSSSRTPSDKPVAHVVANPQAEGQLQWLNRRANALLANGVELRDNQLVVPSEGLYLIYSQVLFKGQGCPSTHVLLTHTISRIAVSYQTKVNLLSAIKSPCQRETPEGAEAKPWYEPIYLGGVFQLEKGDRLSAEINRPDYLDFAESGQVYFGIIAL

B1: Compound 100 (other)
VL: DIQMTQSPSSLSASVGDRVTITCRASQSIDSYLHWYQQKPGKAPKLLIYSASNLETGVPSRFSGSGSGTDFTLTISSLLPEDFATYYCQQVVWRPFTFGQGTKVEIKR
For B1, in the assay with human TNF-α [1], the “EC50 (read off the curve); L929 cytotoxicity assay, cell viability (% control)” value is approximately 50 nM.

B2: Compound 123 (other)
VL: DIQMTQSPSSLSASVGDRVTITCRASQAIDSYLHWYQQKPGKAPKLLIYSASNLETGVPSRFSGSGSGTDFTLTISSLQPEDFATYYCQQVVWRPFTFGQGTKVEIKR
Turning to B2, the “EC50 (read off the curve); L929 cytotoxicity assay, cell viability (% control)” value in the assay with human TNF-α [1] was approximately 50 nM.

B3: Compound 145 (marmoset CDR-grafted dAb) (other)
VL: DIQMTQSPSSLSASVGDRVTITCRASQSIDSYLHWYQQKPGKAPKLLIYSASNLETGVPSRFSGSGSGTDFTLTISSLQPEDFATYYCQQVVWRPFTFGQGTKVEIKR
notes: also called parent dAb
As to B3, the “IC50 (read off the curve)” value with human TNF-α [2] was approximately 30 nM.

B4: Acceptor dAb (Compound 128) (other)
VL: DIQMTQSPSSLSASVGDRVTITCRASQSIDSYLHWYQQKPGKAPKLLIYSASELQSGVPSRFSGSGSGTDFTLTISSLQPEDFATYYCQQVVWRPFTFGQGTKVEIKR
notes: also called acceptor variable region (anti-TNF domain antibody)
Consider B4, for which the “IC50 (read off the curve)” value with human TNF-α [2] was approximately 30 nM.
